Data: publication PMC11477141, “Chemokine Receptor N-Terminus Charge Dictates Reliance on Post-Translational Modifications for Effective Ligand Capture and Following Boosting by Defense Peptides” (International Journal of Molecular Sciences, 2024)
Where no end group is shown, it is not given here.

Key:
CCR5-1like = assay: BRET CAMYEL Gαi signaling via chimeric receptor M1-CCR5-1like; assay type: cell-based, human; details: HEK293 DeltaSia and sC, n = 3
Text: To finally determine if the lack of acidic amino acids in the CCR5 N-terminus can explain the dependency of this receptor on O-glycosylation for effective ligand interaction, we constructed a CCR5 receptor chimera, where the most acidic N-terminal region of CCR1 was inserted into the CCR5 N-terminus, creating the chimeric receptor CCR5-1like (Figure 7).
Figure 7 Receptor N-termini representing CCR1, CCR5, and the chimeric CCR5-1like. The CCR1 N-terminus contains a lot of acidic amino acids (outlined in red) in the form of aspartic acid (D) and glutamic acid (E), whereas CCR5 only contains a few. The chimeric receptor CCR5-1like that contains part of the CCR1 receptor N-terminus (ETTTDYDE) resembles CCR1 with regard to acidic amino acid content and spacing, but they are not the same.
(§1) BRET measurements of Gαi signaling and β-arrestin recruitment: Cells were seeded in 6-well plates (500,000 cells/well) and transiently transfected the following day. For BRET measurements of Gαi signaling, cells were transfected with vectors encoding the human chemokine receptors as indicated (160 ng/well) and the CAMYEL sensor (cAMP sensor, YFP-Epac-RLuc) (840 ng/well) using Lipofectamine (6 µL/well). Briefly, DNA was dissolved in 125 µL OPTI-MEM and Lipofectamine was dissolved in 125 µL OPTI-MEM. The DNA and Lipofectamine solutions were combined into a transfection mixture. The transfection mixture was added dropwise to cells incubated in OPTI-MEM (1 mL/well). Transfections were terminated after 5 h by adding 1 mL of fresh culture medium on top of the OPTI-MEM. The following day the cells were loosened from the plates in PBS with 5 mM glucose and subsequently aliquoted in white 96-well iso plates (~25,000 cells/well). When using C21TP variants and defense peptides (hBD2 and histatin), these were added to a final concentration of 10 μM/well, while an equal amount of PBS was added to control cells. The bioluminescence substrate coelenterazine was added to a final conc. of 5 µM. After 10 min, varying ligand concentrations were added. For BRET measurements of Gαi signaling, forskolin was added 5 min after the addition of the ligand, to a final conc. of 5 µM. The plates were kept in the dark at all times. A Perkin Elmer Envision machine was used for measuring the emission signals at 530 and 480 nm. The BRET signal is determined as the ratio eYFP (530 nm)/Rluc (480 nm).
(§2) BRET principle with CAMYEL: For quantification of signaling initiated immediately downstream of receptor activation, we used the cAMP binding CAMYEL sensor to perform bioluminescence resonance energy transfer (BRET) based assays. In this assay we measure changes in intracellular cAMP levels in response to receptor activation. Activation of chemokine receptors lead to a decrease in cAMP through inhibition of adenylate cyclase (AC). In the current setup we initially add forskolin that stimulates AC directly to induce an increase in intracellular cAMP, and we then measure the ability of a ligand (chemokine) to counteract the forskolin-induced increase in cAMP. The cAMP sensor (CAMYEL cAMP sensor, YFP-Epac-RLuc) carries the donor Renilla luciferase (Rluc) and the acceptor YFP. Coelenterazine is a substrate for Rluc that will emit light at around 475 nm upon enzymatic cleavage catalyzed by Rluc. When Rluc and YFP are in close proximity, the energy from the emitted light from coelenterazine can be transferred to YFP, resulting in an excitation of YFP, leading to a BRET signal around 525 nm. […]

CCR5 = target: T1, CCR5 (Homo sapiens, UniProt P51681); assay: BRET CAMYEL cAMP sensor assay of ligand-induced Gαi signaling via CCR5; assay type: cell-based; details: n = 3; for Gαi signaling via CCR5 in DeltaSia cells compared to WT cells: HEK293 DeltaSia (ST3GAL1/2 KO); for Gαi signaling via CCR5 in sC cells compared to WT cells: HEK293 sC (C1GALT1 KO); for Gαi signaling via M1-CCR5 in DeltaSia and sC cells compared to WT cells: M1-tagged CCR5, HEK293 DeltaSia and sC; for Gαi signaling via CCR5 in DeltaSia and sC cells: HEK293 DeltaSia and sC, CCL5 oligomerization variants experiment; for Gαi signaling via CCR5 compared to WT CCL5: HEK293 WT cells
T1 construct: expressed in transfected cells; host or cells: CHO-K1, CHO-pgsB618 (GAG-minus), HEK293 WT / DeltaSia / sC
T1 sequence (P51681 whole entry): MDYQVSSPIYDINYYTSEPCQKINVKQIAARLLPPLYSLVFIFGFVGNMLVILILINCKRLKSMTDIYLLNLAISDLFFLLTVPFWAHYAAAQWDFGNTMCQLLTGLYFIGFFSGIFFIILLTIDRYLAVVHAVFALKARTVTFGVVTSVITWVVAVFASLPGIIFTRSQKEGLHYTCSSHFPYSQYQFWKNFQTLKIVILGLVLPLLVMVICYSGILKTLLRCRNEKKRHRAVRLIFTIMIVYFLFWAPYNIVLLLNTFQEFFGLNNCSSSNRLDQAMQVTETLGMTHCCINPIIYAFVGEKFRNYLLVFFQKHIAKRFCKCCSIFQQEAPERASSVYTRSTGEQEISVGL
Protocol: (§3) For quantification of signaling initiated immediate downstream of receptor activation, we used the cAMP binding CAMYEL sensor to perform bioluminescence resonance energy transfer (BRET)-based assays. Shortly, in this assay increased receptor activation leads to an increase in BRET ratio. For detailed information see the Materials and Methods section.
(§4) In signaling assays testing the boosting ability of basic peptides, transfected cells were aliquoted into 96-well plates in the presence of 10 µM peptide or PBS vehicle. After R-Luc substrate addition, chemokines were added to reach final concentrations ranging from 0–100 nM (0, 0.1, 1, 10, and 100 nM) and forskolin was applied before reading emission at 475 and 525 nm.
as §1
as §2, with “nm. EPAC is a cAMP binding protein that changes conformation upon cAMP binding. During low cAMP concentrations, Rluc and YFP are near each other, and a strong BRET signal at 525 nm is obtained. When cAMP levels increase, cAMP will bind to EPAC, creating a conformational change, separating Rluc and YFP, reducing the BRET ratio, and increasing the emission from Rluc at 475 nm. Thus, by measuring the ratio between the cAMP-bound (475 nm) and the cAMP-free (525 nm) state of CAMYEL we obtain a measure of receptor activation.” for “nm.”

CCR1 = target: T2, CCR1 (Homo sapiens, UniProt P32246); assay: BRET CAMYEL cAMP sensor assay of ligand-induced Gαi signaling via CCR1; assay type: cell-based; details: n = 3; for Gαi signaling via CCR1 in DeltaSia and sC cells: CCL5 oligomerization variants experiment; for Gαi signaling via CCR1 compared to WT CCL5: HEK293 WT cells
T2 construct: expressed in transfected cells; host or cells: CHO-K1, CHO-pgsB618 (GAG-minus), HEK293 WT / DeltaSia / sC
T2 sequence (P32246 1-355): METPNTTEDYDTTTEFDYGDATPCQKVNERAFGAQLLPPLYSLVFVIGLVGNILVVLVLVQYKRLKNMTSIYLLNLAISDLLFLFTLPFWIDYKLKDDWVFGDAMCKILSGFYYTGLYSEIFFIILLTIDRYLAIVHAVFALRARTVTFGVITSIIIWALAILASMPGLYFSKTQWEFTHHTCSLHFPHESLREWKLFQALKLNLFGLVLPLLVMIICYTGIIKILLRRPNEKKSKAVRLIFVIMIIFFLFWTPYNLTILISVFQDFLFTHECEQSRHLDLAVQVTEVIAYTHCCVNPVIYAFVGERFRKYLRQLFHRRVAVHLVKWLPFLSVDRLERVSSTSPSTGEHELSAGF
Protocol: as §3, §4, §1
as §2, with “nm. EPAC is a cAMP binding protein that changes conformation upon cAMP binding. During low cAMP concentrations, Rluc and YFP are near each other, and a strong BRET signal at 525 nm is obtained. When cAMP levels increase, cAMP will bind to EPAC, creating a conformational change, separating Rluc and YFP, reducing the BRET ratio, and increasing the emission from Rluc at 475 nm. Thus, by measuring the ratio between the cAMP-bound (475 nm) and the cAMP-free (525 nm) state of CAMYEL we obtain a measure of receptor activation.” for “nm.”

naked CCR5 N-terminus = assay: Fluorescence polarization binding to FAM-labeled CCR5 N-terminal peptide; parameters: species or system human
Protocol: (§5) Fluorescence polarization (FP) assay: The carboxyfluorescein (FAM)-labeled peptides representing the CCR1 and CCR5 N-termini functioned as the probes for quantifying the interaction between the receptor N-terminus and C21TP^81-111. The probe was diluted in FP buffer (1:3, PBS:MilliQ) and 10 µL was added to a final concentration of 250 nM per well in a black 384-well plate (Corning). The C21TP^81-111 peptide (2 mM) was diluted using a two-fold dilution series; 30 µL of the peptide was added to each well to final concentrations ranging from 12.21 nM to 100 µM. Blanks containing 10 µL probe and 30 µL FP buffer were included. The plate was spun down at 1000 rpm for 1 min and the FP signal was measured on a Flex station using SoftMax Pro software 7.0. Each experiment was conducted in triplicate. The binding curves were generated by plotting the FP signal, expressed as millipolarization units (mP), against C21TP^81-111 concentration. The dissociation constant (Kd) value was calculated using GraphPad Prism 9.
(§6) Probes: • CCR1: (5,6-FAM)-[…], • CCR5: (5,6-FAM)-ADYQVSSPIYDINYYTSEP.

naked CCR1 N-terminus = naked CCR1 N-terminus (Homo sapiens, UniProt P32246); assay: Fluorescence polarization binding to FAM-labeled CCR1 N-terminal peptide; details: FAM-labeled CCR1 N-terminal peptide
Sequence of naked CCR1 N-terminus (P32246 with tags, fused parts or gaps limits assumed): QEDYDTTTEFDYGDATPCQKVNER
Protocol: as §5, §6

CCR2 = details: cited from earlier work
Text: The reliance on electrostatic interactions between basic amino acids in the chemokine and acidic regions in the receptor N-terminus for chemokine receptor binding is illustrated by a study carried out by Hemmerich et al.. To investigate the influence of charge, hydrophobicity, and aromaticity on binding of CCL2 to its cognate receptor CCR2, this group substituted all surface-exposed residues on CCL2 by alanine. […] In contr ...

[1] = CHO-K1 cells, 10 µM peptide, chemokine 0-100 nM

CCL3: human chemokine from Peprotech, overall acidic
Gαi signaling via M1-CCR5-1like in DeltaSia and sC cells compared to WT cells (CCR5-1like): persists in DeltaSia and sC to almost the same high level as observed in WT cells | Gαi signaling via CCR5 in DeltaSia cells compared to WT cells (CCR5): drastically reduced | Gαi signaling via CCR5 in sC cells compared to WT cells (CCR5): drastically reduced | Gαi signaling via M1-CCR5 in DeltaSia and sC cells compared to WT cells (CCR5): drastically reduced | Gαi signaling via CCR1 in DeltaSia and sC cells compared to WT cells (CCR1; HEK293 DeltaSia and sC): persists in DeltaSia and sC to almost the same high level as observed in WT cells

human beta defensin 2 (GIGDPVTCLKSGAICHPVFCPRRYKQIGTCGLPGTKCCKKP; ends and bridges not checked; cysteine pairing not given here) [hBD2, human anti-microbial / host defense peptide, from Caslo, reference compound]
binding to the naked CCR5 N-terminus (naked CCR5 N-terminus): neither of the HDPs bound | boosting of CCL5-induced Gαi signaling via CCR1 (CCR1; [1]): as efficient in boosting signaling via CCR1 by CCL5 and CCL7 as C21TP^81-111 | boosting of CCL7-induced Gαi signaling via CCR1 (CCR1; [1]): as efficient in boosting signaling via CCR1 by CCL5 and CCL7 as C21TP^81-111 | effect on CCL3-induced Gαi signaling via CCR1 (CCR1; [1]): not affected | binding to the naked CCR1 N-terminus (naked CCR1 N-terminus): bind in a dose-dependent manner

K35E: CCL2 with K35 substituted by glutamic acid (literature)
reduction of CCL2 binding to CCR2 by substitution in CCL2 (CCR2): ≥ 1600 fold

R24E: CCL2 with R24 substituted by glutamic acid (literature)
reduction of CCL2 binding to CCR2 by substitution in CCL2 (CCR2): ≥ 1600 fold

R24A: CCL2 with R24A substitution (literature)
reduction of CCL2 binding to CCR2 by substitution in CCL2 (CCR2): ~ 30 fold

B1: E26A: mutant version of CCL5, obligate tetramer, expressed in E. coli (protein, UniProt P13501 24-91, looked up, variant E26A)
C-C motif chemokine 5: SPYSSDTTPCCFAYIARPLPRAHIKAYFYTSGKCSNPAVVFVTRKNRQVCANPEKKWVREYINSLEMS
Gαi signaling via CCR5 in DeltaSia and sC cells (CCR5): very low | Gαi signaling via CCR5 compared to WT CCL5 (CCR5): WT-like signaling | Gαi signaling via CCR1 in DeltaSia and sC cells (CCR1; HEK293 DeltaSia and sC): remains high | Gαi signaling via CCR1 compared to WT CCL5 (CCR1): WT-like signaling

B2: E66A: mutant version of CCL5, obligate dimer, expressed in E. coli (protein, UniProt P13501 24-91, looked up, variant E66A)
C-C motif chemokine 5: SPYSSDTTPCCFAYIARPLPRAHIKEYFYTSGKCSNPAVVFVTRKNRQVCANPEKKWVREYINSLAMS
modifications: also: obligate dimer
notes: mutant version of CCL5, obligate dimer, expressed in E. coli
Gαi signaling via CCR5 in DeltaSia and sC cells (CCR5): very low | Gαi signaling via CCR5 compared to WT CCL5 (CCR5): WT-like signaling | Gαi signaling via CCR1 in DeltaSia and sC cells (CCR1; HEK293 DeltaSia and sC): remains high | Gαi signaling via CCR1 compared to WT CCL5 (CCR1): WT-like signaling

B3: CCL8: human chemokine from Peprotech (protein, UniProt P80075 24-99, looked up)
C-C motif chemokine 8: QPDSVSIPITCCFNVINRKIPIQRLESYTRITNIQCPKEAVIFKTKRGKEVCADPKERWVRDSMKHLDQIFQNLKP
Gαi signaling via M1-CCR5-1like in DeltaSia and sC cells compared to WT cells (CCR5-1like): persists in DeltaSia and sC to almost the same high level as observed in WT cells | Gαi signaling via CCR5 in DeltaSia cells compared to WT cells (CCR5): drastically reduced | Gαi signaling via CCR5 in sC cells compared to WT cells (CCR5): drastically reduced | Gαi signaling via M1-CCR5 in DeltaSia and sC cells compared to WT cells (CCR5): drastically reduced
